Experiments:
[1] = target: spp_human HM13 (UniProt Q8TCT9)
[2] = target: spp_human HM13 (UniProt Q8TCT9); remark: listed apart in the source

spp_human HM13, sequence (Q8TCT9 whole entry): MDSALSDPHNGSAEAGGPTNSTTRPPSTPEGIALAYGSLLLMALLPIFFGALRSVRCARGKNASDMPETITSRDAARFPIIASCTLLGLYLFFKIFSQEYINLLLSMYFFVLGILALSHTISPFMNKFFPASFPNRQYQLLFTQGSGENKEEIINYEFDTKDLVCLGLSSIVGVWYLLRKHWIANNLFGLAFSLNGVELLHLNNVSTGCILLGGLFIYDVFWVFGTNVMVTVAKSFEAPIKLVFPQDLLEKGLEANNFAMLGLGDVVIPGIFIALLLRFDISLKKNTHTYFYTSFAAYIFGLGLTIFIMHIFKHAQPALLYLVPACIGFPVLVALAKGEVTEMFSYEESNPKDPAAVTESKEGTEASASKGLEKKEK
Protein disulfide-isomerase (Homo sapiens), P07237 C400S, sequence (P07237 whole entry C400S): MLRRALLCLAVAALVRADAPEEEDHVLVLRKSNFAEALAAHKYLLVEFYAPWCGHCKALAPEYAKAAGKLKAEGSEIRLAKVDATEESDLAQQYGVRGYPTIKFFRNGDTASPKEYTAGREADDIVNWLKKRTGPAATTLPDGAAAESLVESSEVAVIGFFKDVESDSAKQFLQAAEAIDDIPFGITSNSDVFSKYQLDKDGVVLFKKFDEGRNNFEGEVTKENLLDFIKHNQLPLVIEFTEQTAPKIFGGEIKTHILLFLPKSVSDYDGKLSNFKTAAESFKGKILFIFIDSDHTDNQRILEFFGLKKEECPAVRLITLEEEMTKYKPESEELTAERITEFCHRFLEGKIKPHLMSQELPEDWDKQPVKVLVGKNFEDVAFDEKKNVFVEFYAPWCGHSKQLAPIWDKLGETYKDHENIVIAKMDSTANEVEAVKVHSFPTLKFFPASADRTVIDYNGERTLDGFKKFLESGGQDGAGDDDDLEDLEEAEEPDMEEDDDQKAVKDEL
Protein disulfide-isomerase (Homo sapiens), P07237 C56S, sequence (P07237 whole entry C56S): as the sequence (P07237 whole entry C400S) above, with C56S, S400C counted along it
Protein disulfide-isomerase (Homo sapiens), P07237 F275W, sequence (P07237 whole entry F275W): as the sequence (P07237 whole entry C400S) above, with F275W, S400C counted along it
Protein disulfide-isomerase (Homo sapiens), P07237 C397S, sequence (P07237 whole entry C397S): as the sequence (P07237 whole entry C400S) above, with C397S, S400C counted along it
Protein disulfide-isomerase (Homo sapiens), P07237 I289A, sequence (P07237 whole entry I289A): as the sequence (P07237 whole entry C400S) above, with I289A, S400C counted along it
Protein disulfide-isomerase (Homo sapiens), P07237 C53S, sequence (P07237 whole entry C53S): as the sequence (P07237 whole entry C400S) above, with C53S, S400C counted along it

| effect of a mutation on the interaction [1] | effect of a mutation on the interaction [2] | Substance |
| --- | --- | --- |
| decreasing interaction |  | Protein disulfide-isomerase (Homo sapiens), P07237 C400S |
|  | increasing interaction | Protein disulfide-isomerase (Homo sapiens), P07237 I289A |

The next lines start with the substance.

| Substance | effect of a mutation on the interaction [1] | effect of a mutation on the interaction [2] |
| --- | --- | --- |
| Protein disulfide-isomerase (Homo sapiens), P07237 C53S | decreasing interaction |  |
| Protein disulfide-isomerase (Homo sapiens), P07237 C56S | decreasing interaction |  |
| Protein disulfide-isomerase (Homo sapiens), P07237 C397S | decreasing interaction |  |
| Protein disulfide-isomerase (Homo sapiens), P07237 F275W |  | increasing interaction |
